Source: patent US20210115151A1 (TOHOKU UNIVERSITY, published 2021)

Assays:
human podoplanin D82A = target: T1, human podoplanin D82A (human, UniProt Q86YL7 23-162); test: flow cytometry, alanine scan 77-89
T1 construct: Alanine point mutant tested by flow cytometry
T1 chain: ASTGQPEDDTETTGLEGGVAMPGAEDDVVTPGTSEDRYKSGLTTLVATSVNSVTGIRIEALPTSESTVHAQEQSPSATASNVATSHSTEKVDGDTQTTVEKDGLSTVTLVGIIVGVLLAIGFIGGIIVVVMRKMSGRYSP

human podoplanin E81A = target: T2, human podoplanin E81A (human, UniProt Q86YL7 23-162); test: flow cytometry, alanine scan 77-89
T2 construct: Alanine point mutant tested by flow cytometry
T2 chain: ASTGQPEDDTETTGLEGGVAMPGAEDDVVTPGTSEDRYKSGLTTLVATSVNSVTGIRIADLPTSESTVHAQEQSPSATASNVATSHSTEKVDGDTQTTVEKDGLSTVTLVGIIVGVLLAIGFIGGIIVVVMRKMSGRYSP

human podoplanin I78A = target: T3, human podoplanin I78A (human, UniProt Q86YL7 23-162); test: flow cytometry, alanine scan 77-89
T3 construct: Alanine point mutant tested by flow cytometry
T3 chain: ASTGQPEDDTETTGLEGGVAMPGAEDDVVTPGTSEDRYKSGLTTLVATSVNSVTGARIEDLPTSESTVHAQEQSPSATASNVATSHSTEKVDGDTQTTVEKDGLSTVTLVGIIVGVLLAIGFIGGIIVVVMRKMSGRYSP

human podoplanin I80A = target: T4, human podoplanin I80A (human, UniProt Q86YL7 23-162); test: flow cytometry, alanine scan 77-89
T4 construct: Alanine point mutant tested by flow cytometry
T4 chain: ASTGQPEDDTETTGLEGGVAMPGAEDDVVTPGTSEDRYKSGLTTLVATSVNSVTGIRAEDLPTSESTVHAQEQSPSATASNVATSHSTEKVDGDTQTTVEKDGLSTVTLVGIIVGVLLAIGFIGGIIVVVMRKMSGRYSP

human podoplanin T85A = target: T5, human podoplanin T85A (human, UniProt Q86YL7 23-162); test: flow cytometry, alanine scan 77-89
T5 chain: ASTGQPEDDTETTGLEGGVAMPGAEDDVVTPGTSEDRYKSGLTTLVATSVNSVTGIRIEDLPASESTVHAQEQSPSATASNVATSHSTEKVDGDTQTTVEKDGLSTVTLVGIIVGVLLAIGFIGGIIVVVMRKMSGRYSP

[1] = target: T6, human podoplanin on cancer cells (glioblastoma LN319, lung cancer PC-10) (human, UniProt Q86YL7 23-162, sialylated O-glycan on Thr85 (as the filing concludes for podoplanin on cancer cells)); test: flow cytometry, ExpiCHO culture supernatant on LN319 cells
T6 construct: Endogenous podoplanin on cancer cell lines LN319 and PC-10; also called hPDPN; cancer-type podoplanin
T6 chain: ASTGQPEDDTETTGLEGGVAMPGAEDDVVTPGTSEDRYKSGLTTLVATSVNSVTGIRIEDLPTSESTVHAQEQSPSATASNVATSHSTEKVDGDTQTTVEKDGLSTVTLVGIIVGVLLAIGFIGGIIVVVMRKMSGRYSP
Description: Plasmids of the H chain and the L chain of chPMab117-mG2a were introduced into ExpiCHO cell lines (product of Thermo Fisher) by lipofection and a recombinant antibody of chPMab117-mG2a was expressed in the culture supernatant. The culture supernatant was collected two days after gene introduction. It was reacted with LN 319 cells at 4° C. for 30 minutes and was then reacted further with an anti-mouse IgG-FITC antibody (product of Thermo Fisher) at 4° C. for 30 minutes. As a negative control, only a secondary antibody was used.

B1: human chimeric PMab-117 (chPMab-117) (antibody, human IgG1)
heavy: not shown
light: DVVLTQTPVAQPVTLGDQASISCRSSQSLVHSNGNTYLEWYLQKPGQSPQLLIYKVSNRFSGVPDRFIGSGSGSDFTLKISRVEPEDLGVYYCFQVTHDPFTFGSGTKLEIKRGSAAPSVFIFPPSDEQLKSGTASVVCLLNNFYPREAKVQWKVDNALQSGNSQESVTEQDSKDSTYSLSSTLTLSKADYEKHKVYACEVTHQGLSSPVTKSFNRGEC
Human podoplanin D82A
  binding result: no binding (tested: 10 µg/mL)
Human podoplanin E81A
  binding result: no binding (tested: 10 µg/mL)
Human podoplanin I78A
  binding result: no binding (tested: 10 µg/mL)
Human podoplanin I80A
  binding result: no binding (tested: 10 µg/mL)
Human podoplanin T85A
  binding result: no binding (tested: 10 µg/mL)

B2: mouse chimeric PMab-117 (chPMab117-mG2a) (antibody, mouse IgG2a, kappa)
heavy: AVQLVESGGGLVQPKESLKISCAASGFTFSNAAMYWVRQAPGKGLEWVARIRSKPNNYATYYTDSVKGRFTISRDDSKSMVHLQMDNLKTEDTAMYYCTVGGNNYAAAYWGQGTLVTVSSAKTTAPSVYPLAPVCGDTTGSSVTLGCLVKGYFPEPVTLTWNSGSLSSGVHTFPAVLQSDLYTLSSSVTVTSSTWPSQSITCNVAHPASSTKVDKKIEPRGPTIKPCPPCKCPAPNLLGGPSVFIFPPKIKDVLMISLSPIVTCVVVDVSEDDPDVQISWFVNNVEVHTAQTQTHREDYNSTLRVVSALPIQHQDWMSGKEFKCKVNNKDLPAPIERTISKPKGSVRAPQVYVLPPPEEEMTKKQVTLTCMVTDFMPEDIYVEWTNNGKTELNYKNTEPVLDSDGSYFMYSKLRVEKKNWVERNSYSCSVVHEGLHNHHTTKSFSRTPGK
light: DVVLTQTPVAQPVTLGDQASISCRSSQSLVHSNGNTYLEWYLQKPGQSPQLLIYKVSNRFSGVPDRFIGSGSGSDFTLKISRVEPEDLGVYYCFQVTHDPFTFGSGTKLEIKRADAAPTVSIFPPSTEQLATGGASVVCLMNNFYPRDISVKWKIDGTERRDGVLDSVTDQDSKDSTYSMSSTLSLTKADYESHNLYTCEVVHKTSSSPVVKSFNRNEC
notes: tested as ExpiCHO culture supernatant; no limits stated
[1]
  binding result: binds
